We go through ten molecules from patent publication US7202329 (MYRIAD GENETICS, dated 2007).

B3: Golgi autoantigen (Golgin-84) (aa 198-501) (other, UniProt Q8TBA6 198-501, looked up)
chain: SKENVSSNAACPDHTPTPNDDGKSHELSNLRLENQLLRNEVQSLNQEMASLLQRSKETQEELNKARARVEKWNADHSKSDRMTRGLRAQVDDLTEAVAAKDSQLAVLKVRLQEADQLLSTRTEALEALQSEKSRIMQDQSEGNSLQNQALQTFQERLHEADATLKREQESYKQMQSEFAARLNKVEMERQNLAEAITLAERKYSDEKKRVDELQQQVKLYKLNLESSKQELIDYKQKATRILQSKEKLINSLKEGSGFEGLDSSTASSMELEELRHEKEMQREEIQKLMGQIHQLRSELQDMEA
notes: range 198-501
B6: Tsg101 (aa 147-391) (other, human, UniProt Q99816 147-390, looked up)
chain: SASYPPYQATGPPNTSYMPGMPGGISPYPSGYPPNPSGYPGCPYPPGGPYPATTSSQYPSQPPVTTVGPSRDGTISEDTIRASLISAVSDKLRWRMKEEMDRAQAELNALKRTEEDLKKGHQKLEEMVTRLDQEVAEVDKNIELLKKKDEELSSALEKMENQSENNDIDEVIIPTAPLYKQILNLYAEENAIEDTIFYLGEALRRGVIDLDVFLKHVRLLSRKQFQLRALMQKARKTAGLSDLY
notes: range 147-391
B8: VPS28 protein (aa 10-221) (other, human, UniProt Q9UK41 10-221, looked up)
chain: GIGAPGNKPELYEEVKLYKNAREREKYDNMAELFAVVKTMQALEKAYIKDCVSPSEYTAACSRLLVQYKAAFRQVQGSEISSIDEFCRKFRLDCPLAMERIKEDRPITIKDDKGNLNRCIADVVSLFITVMDKLRLEIRAMDEIQPDLRELMETMHRMSHLPPDFEGRQTVSQWLQTLSGMSASDELDDSQVRQMLFDLESAYNAFNRFLHA

What all share (experiment): yeast two-hybrid
Assay [1] has as its target B6.
The target of assay [2] is T1, Protein kinase C and casein kinase substrate (PACSIN2) (aa 174-367) (UniProt Q9UNF0 174-367).
T1 construct: range 174-367
T1 sequence (looked up): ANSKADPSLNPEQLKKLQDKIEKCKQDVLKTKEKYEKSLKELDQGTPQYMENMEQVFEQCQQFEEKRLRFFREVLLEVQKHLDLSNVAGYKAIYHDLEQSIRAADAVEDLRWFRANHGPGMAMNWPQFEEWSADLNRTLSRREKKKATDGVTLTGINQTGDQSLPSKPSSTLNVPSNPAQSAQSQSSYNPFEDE

The target of assay [3] is T2, Death associated protein 5 (DAP5) (aa 16-157) (UniProt P78344 16-157).
T2 construct: range 16-157
T2 sequence (looked up): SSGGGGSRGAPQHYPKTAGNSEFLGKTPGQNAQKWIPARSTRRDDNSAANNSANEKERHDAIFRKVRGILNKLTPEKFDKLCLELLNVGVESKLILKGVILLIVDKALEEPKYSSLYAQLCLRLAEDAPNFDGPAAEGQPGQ

Assay [4] has as its target T3, Chromosome-associated polypeptide HCAP (aa 119-353) (human, UniProt Q9UQE7 119-353).
T3 construct: range 119-353

In assay [5] the target is B8.
For assay [6], the target named is T4, Tsg101 (aa 12-326) (human, UniProt Q99816 12-326).
T4 sequence (looked up): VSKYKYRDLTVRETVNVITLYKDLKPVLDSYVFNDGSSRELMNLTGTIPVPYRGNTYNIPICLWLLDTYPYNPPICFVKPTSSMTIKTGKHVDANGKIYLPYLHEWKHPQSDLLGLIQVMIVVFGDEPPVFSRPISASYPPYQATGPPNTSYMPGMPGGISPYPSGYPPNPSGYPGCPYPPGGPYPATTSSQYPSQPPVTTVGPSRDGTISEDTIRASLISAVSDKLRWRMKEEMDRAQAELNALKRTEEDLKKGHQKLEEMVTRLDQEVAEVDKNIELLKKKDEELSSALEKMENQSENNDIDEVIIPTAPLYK

For assay [7], the target named is T5, hypothetical protein FLJ10540 (aa 1-140) (UniProt Q53EZ4 1-140).
T5 construct: range 1-140
T5 sequence (looked up): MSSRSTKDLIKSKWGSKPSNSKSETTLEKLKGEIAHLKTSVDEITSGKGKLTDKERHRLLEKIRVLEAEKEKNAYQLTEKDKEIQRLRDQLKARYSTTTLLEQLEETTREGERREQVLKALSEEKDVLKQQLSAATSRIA

The target in assay [8] is B3.
Assay [9] concerns the target T6, Cytoplasmic linker 2 (CYLN2) (aa 607-947) (UniProt Q9UDT6 607-947).
T6 construct: also called CLIP-115
T6 sequence (looked up): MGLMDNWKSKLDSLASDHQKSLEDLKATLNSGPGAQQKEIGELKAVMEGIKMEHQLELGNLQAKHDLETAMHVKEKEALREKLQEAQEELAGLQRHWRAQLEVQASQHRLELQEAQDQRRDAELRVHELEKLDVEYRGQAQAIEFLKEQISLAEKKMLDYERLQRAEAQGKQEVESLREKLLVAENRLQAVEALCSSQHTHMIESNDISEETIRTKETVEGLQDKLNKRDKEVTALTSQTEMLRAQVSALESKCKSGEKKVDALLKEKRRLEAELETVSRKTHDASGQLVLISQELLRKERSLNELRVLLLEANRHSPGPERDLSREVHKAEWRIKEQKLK

The target of assay [10] is T7, VPS28 protein (aa 9-211) (human, UniProt Q9UK41 9-211).
T7 construct: range 9-211
T7 sequence (looked up): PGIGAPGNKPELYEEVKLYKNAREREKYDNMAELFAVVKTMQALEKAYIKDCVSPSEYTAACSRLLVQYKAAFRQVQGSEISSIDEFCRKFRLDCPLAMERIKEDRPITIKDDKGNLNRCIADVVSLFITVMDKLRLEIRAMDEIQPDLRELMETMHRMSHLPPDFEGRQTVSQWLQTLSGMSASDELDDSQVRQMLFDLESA

T3 sequence (Q9UQE7 119-353 limits assumed): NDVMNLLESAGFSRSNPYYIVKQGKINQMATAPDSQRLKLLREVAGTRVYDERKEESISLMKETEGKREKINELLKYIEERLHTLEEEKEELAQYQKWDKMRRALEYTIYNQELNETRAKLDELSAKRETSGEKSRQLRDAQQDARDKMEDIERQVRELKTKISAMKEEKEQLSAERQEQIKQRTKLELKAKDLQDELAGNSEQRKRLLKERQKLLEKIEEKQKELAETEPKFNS

B1: VPS28 protein (aa 27-221) (other, human, UniProt Q9UK41 27-221, looked up)
chain: YKNAREREKYDNMAELFAVVKTMQALEKAYIKDCVSPSEYTAACSRLLVQYKAAFRQVQGSEISSIDEFCRKFRLDCPLAMERIKEDRPITIKDDKGNLNRCIADVVSLFITVMDKLRLEIRAMDEIQPDLRELMETMHRMSHLPPDFEGRQTVSQWLQTLSGMSASDELDDSQVRQMLFDLESAYNAFNRFLHA
On to B1, for which the binding result in [1] was “binds”.

B2: Tsg101 (aa 265-391) (other, human, UniProt Q99816 265-390, looked up)
chain: KGHQKLEEMVTRLDQEVAEVDKNIELLKKKDEELSSALEKMENQSENNDIDEVIIPTAPLYKQILNLYAEENAIEDTIFYLGEALRRGVIDLDVFLKHVRLLSRKQFQLRALMQKARKTAGLSDLY
notes: range 265-391
Consider B2, for which the binding result in assay [2], in [3], in [4] and in assay [5] was “binds” in each case.

For the molecule B3, the binding result in assay [6] is “binds”.

B4: Tsg101 (aa 140-270) (other, human, UniProt Q99816 140-270, looked up)
chain: PVFSRPISASYPPYQATGPPNTSYMPGMPGGISPYPSGYPPNPSGYPGCPYPPGGPYPATTSSQYPSQPPVTTVGPSRDGTISEDTIRASLISAVSDKLRWRMKEEMDRAQAELNALKRTEEDLKKGHQKL
notes: range 140-270
Consider B4, for which the binding result in assay [7] is on record as “binds”.

B5: Tsg101 (aa 317-391) (other, human, UniProt Q99816 317-390, looked up)
chain: VIIPTAPLYKQILNLYAEENAIEDTIFYLGEALRRGVIDLDVFLKHVRLLSRKQFQLRALMQKARKTAGLSDLY
notes: range 317-391
Consider B5, for which the binding result in assay [5] was “binds”. Consider B6, for which the binding result in assay [8] was “binds”.

B7: Accessory proteins BAP31/BAP29 (BAP31) (aa 184-246) (other, UniProt P51572 184-246, looked up)
chain: LKADLQKLKDELASTKQKLEKAENQVLAMRKQSEGLTKEYDRLLEEHAKLQAAVDGPMDKKEE
notes: range 184-246
B7: the binding result in assay [6] is on record as “binds”. As for B8, the binding result in assay [1] is given as “binds”.

B9: Golgi autoantigen (Golgin-84) (aa 198-497) (other, UniProt Q8TBA6 198-497, looked up)
chain: SKENVSSNAACPDHTPTPNDDGKSHELSNLRLENQLLRNEVQSLNQEMASLLQRSKETQEELNKARARVEKWNADHSKSDRMTRGLRAQVDDLTEAVAAKDSQLAVLKVRLQEADQLLSTRTEALEALQSEKSRIMQDQSEGNSLQNQALQTFQERLHEADATLKREQESYKQMQSEFAARLNKVEMERQNLAEAITLAERKYSDEKKRVDELQQQVKLYKLNLESSKQELIDYKQKATRILQSKEKLINSLKEGSGFEGLDSSTASSMELEELRHEKEMQREEIQKLMGQIHQLRSELQ
notes: range 198-497
For B9, the binding result in [6] was “binds”.

B10: Tsg101 (aa 231-391) (other, human, UniProt Q99816 231-390, looked up)
chain: ISAVSDKLRWRMKEEMDRAQAELNALKRTEEDLKKGHQKLEEMVTRLDQEVAEVDKNIELLKKKDEELSSALEKMENQSENNDIDEVIIPTAPLYKQILNLYAEENAIEDTIFYLGEALRRGVIDLDVFLKHVRLLSRKQFQLRALMQKARKTAGLSDLY
For the molecule B10, the binding result in [9], in assay [8], in assay [5] and in [10] was “binds” in each case.
